# Test results reported in paper PMC4552487.
# Target: Parkin 80-465 (UniProt O60260)
# Assay: AlphaScreen, competition with GST-Ubl (1-76)
# Conditions: reference: unphosphorylated Ubl (1-76); sites S65
substance,measurement,value
"Parkin Ubl domain, 1-76 (from UniProt O60260) Ubl (1-76) phosphorylated by TcPINK1, Mono-Q purified",binding against the reference,weaker
